From patent publication US20230184768A1 (MESO SCALE TECHNOLOGIES, published 2023)

Biological target: T1, labeled ACE2 (angiotensin-converting enzyme 2) (human, UniProt Q9BYF1 18-740)
T1 construct: also called ACE2 detection reagent
Test: labeled ACE2 on immobilized Mixed Panel, ECL

T1 sequence (Q9BYF1 18-740 limits assumed): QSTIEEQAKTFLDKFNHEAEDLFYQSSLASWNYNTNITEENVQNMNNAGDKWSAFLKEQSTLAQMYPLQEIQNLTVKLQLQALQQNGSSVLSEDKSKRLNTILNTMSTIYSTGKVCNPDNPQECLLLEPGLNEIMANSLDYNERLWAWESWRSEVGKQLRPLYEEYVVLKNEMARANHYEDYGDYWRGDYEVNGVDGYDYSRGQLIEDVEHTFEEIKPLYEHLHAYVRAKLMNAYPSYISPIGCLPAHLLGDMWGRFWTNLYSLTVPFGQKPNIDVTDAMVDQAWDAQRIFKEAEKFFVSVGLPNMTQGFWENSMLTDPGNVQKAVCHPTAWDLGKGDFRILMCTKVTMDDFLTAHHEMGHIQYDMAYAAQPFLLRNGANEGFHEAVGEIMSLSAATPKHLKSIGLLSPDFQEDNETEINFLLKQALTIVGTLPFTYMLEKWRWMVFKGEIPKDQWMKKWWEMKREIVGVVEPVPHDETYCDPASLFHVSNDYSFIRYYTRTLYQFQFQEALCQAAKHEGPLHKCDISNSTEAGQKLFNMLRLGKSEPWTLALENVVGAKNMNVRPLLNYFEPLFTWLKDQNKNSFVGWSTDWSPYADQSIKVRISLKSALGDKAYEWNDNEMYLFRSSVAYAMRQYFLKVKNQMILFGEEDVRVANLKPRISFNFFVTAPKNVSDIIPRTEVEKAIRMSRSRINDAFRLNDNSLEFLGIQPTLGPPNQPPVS

B1: HCoV-OC43 S protein (other)
chain: AVIGDLKCTSDNINDKDTGPPPISTDTVDVTNGLGTYYVLDRVYLNTTLFLNGYYPTSGSTYRNMALKGSVLLSRLWFKPPFLSDFINGIFAKVKNTKVIKDRVMYSEFPAITIGSTFVNTSYSVVVQPRTINSTQDGDNKLQGLLEVSVCQYNMCEYPQTICHPNLGNHRKELWHLDTGVVSCLYKRNFTYDVNADYLYFHFYQEGGTFYAYFTDTGVVTKFLFNVYLGMALSHYYVMPLTCNSKLTLEYWVTPLTSRQYLLAFNQDGIIFNAEDCMSDFMSEIKCKTQSIAPPTGVYELNGYTVQPIADVYRRKPNLPNCNIEAWLNDKSVPSPLNWERKTFSNCNFNMSSLMSFIQADSFTCNNIDAAKIYGMCFSSITIDKFAIPNGRKVDLQLGNLGYLQSFNYRIDTTATSCQLYYNLPAANVSVSRFNPSTWNKRFGFIEDSVFKPRPAGVLTNHDVVYAQHCFKAPKNFCPCKLNGSCVGSGPGKNNGIGTCPAGTNYLTCDNLCTPDPITFTGTYKCPQTKSLVGIGEHCSGLAVKSDYCGGNSCTCRPQAFLGWSADSCLQGDKCNIFANFILHDVNSGLTCSTDLQKANTDIILGVCVNYDLYGILGQGIFVEVNATYYNSWQNLLYDSNGNLYGFRDYIINRTFMIRSCYSGRVSAAFHANSSEPALLFRNIKCNYVFNNSLTRQLQPINYFDSYLGCVVNAYNSTAISVQTCDLTVGSGYCVDYSKNRRSRGAITTGYRFTNFEPFTVNSVNDSLEPVGGLYEIQIPSEFTIGNMVEFIQTSSPKVTIDCAAFVCGDYAACKSQLVEYGSFCDNINAILTEVNELLDTTQLQVANSLMNGVTLSTKLKDGVNFNVDDINFSPVLGCLGSECSKASSRSAIEDLLFDKVKLSDVGFVEAYNNCTGGAEIRDLICVQSYKGIKVLPPLLSENQISGYTLAATSASLFPPWTAAAGVPFYLNVQYRINGLGVTMDVLSQNQKLIANAFNNALYAIQEGFDATNSALVKIQAVVNANAEALNNLLQQLSNRFGAISASLQEILSRLDALEAEAQIDRLINGRLTALNAYVSQQLSDSTLVKFSAAQAMEKVNECVKSQSSRINFCGNGNHIISLVQNAPYGLYFIHFSYVPTKYVTARVSPGLCIAGDRGIAPKSGYFVNVNNTWMYTGSGYYYPEPITENNVVVMSTCAVNYTKAPYVMLNTSIPNLPDFKEELDQWFKNQTSVAPDLSLDYINVTFLDLQVEMNRLQEAIKVLNQSYINLKDIGTYE
notes: also called HCoV-OC43 spike protein
binding result: no binding
